Source: patent publication US20200256880A1 (BROAD INSTITUTE, published 2020)

Legend:
Experiment in all cases: western blot of recombinant protein
[1] = molecular target: T1, recombinant human CNAα wild type (unphosphorylated) (human, UniProt Q08209 1-521, limits assumed)
T1 construct: Co-expressed with the CNB1 subunit in E. coli and co-purified; run on denaturing gels for western blot; also called wild-type CNAα; WT CNAα
Experimental: (§1) Levels of total CNAα were used as a loading control and were assessed after stripping of the membranes and incubation with anti-CNAα rabbit by chemiluminescence (bottom panel).

[2] = molecular target: recombinant CNAα double mutant S462E/S469E (human, UniProt Q08209 1-521, limits assumed)
Experimental: as §1

[3] = molecular target: T2, recombinant human CNAα S469E phosphomimetic mutant (human, UniProt Q08209 1-521, limits assumed)
T2 construct: Co-expressed with CNB1 in E. coli and co-purified; also called S469E CNAα; phosphomimic mutant S469E
Experimental: as §1

- binding result [1]: no binding
- binding result [2]: binds
- binding result [3]: binds
B1: monoclonal mouse anti-pS469 CNAα antibody (antibody, V domains shown)
VH: EVQLQQSGAELVRPGASVKLSCTASDFNIKDTYIHWLKQRPEQGLEWIGRIDPANSNPKYDPNFQGKATITTDTSSNTAYLQLSSLTSDDTAVYYCTRRDYYGSGSWFAYWGQGTLVTVSS
VL: DIVMTQAAPSVPVTPGESVSISCRSSKSLLHSNGNTYLYWFLQRPGQSPQLLIYRMSNLASGVPDRFSGSGSGTAFTLRINRVEAEDVGVYYCMQHLEYPLTFGAGTKLELK
notes: 7 and 9 are used; Mouse monoclonal; also called monoclonal mouse anti-S469 phosphospecific antibody; monoclonal murine anti-S469 CNAα phosphospecific antibody
